The record followed here is paper PMC11208158, “Structural mechanism of bridge RNA-guided recombination”.

For data set [1], the target named is T1, IS621 recombinase (Escherichia coli, UniProt A0A0E0Y1P1 1-326). The data set is described as follows: MST; 5 mM Mg2+; MST: 20 nM labelled IS621, RNA 0.076-250 nM, 37 C; labelled protein eluted in 20 mM Tris-HCl pH 7.5, 500 mM NaCl, 5 mM MgCl2, 1 mM DTT, 0.01% Tween 20. The conditions noted are these: protein: recombinant; tags: N-terminal His8, Twin-Strep, HRV 3C site (tag removal not described); chain copies: 4; 5' stem loop, TBL and DBL.

Data set [2] deals with T1, IS621 recombinase. The data set is described as follows: cryo-EM; initial synaptic complex; MST: 20 nM labelled IS621, RNA 0.076-250 nM, 37 C; labelled protein eluted in 20 mM Tris-HCl pH 7.5, 500 mM NaCl, 5 mM MgCl2, 1 mM DTT, 0.01% Tween 20. As to conditions: protein: recombinant; tags: N-terminal His8, Twin-Strep, HRV 3C site (tag removal not described); chain copies: 4; S6:S5 and S14:S13 duplexes with 6-nt mismatches at positions 2-7; TBL and DBL from two bRNA copies.

B1: WT bRNA (177 nt) (structured_RNA)
RNA: AGUGCAGAGAAAAUCGGCCAGUUUUCUCUGCCUGCAGUCCGCAUGCCGUAUCGGGCCUUGGGUUCUAACCUGUUGCGUAGAUUUAUGCAGCGGACUGCCUUUCUCCCAAAGUGAUAAACCGGACAGUAUCAUGGACCGGUUUUCCCGGUAAUCCGUAUUUGCAAGGUUGGUUUCACU
Turning to B1, in the data set with IS621 recombinase [1], the Kd was determined as 3 ± 1 nM.

B2: WT bRNA + 38-bp tDNA 6mm + 44-bp dDNA 6mm (mixed)
RNA: GGGAGUGCAGAGAAAAUCGGCCAGUUUUCUCUGCCUGCAGUCCGCAUGCCGUAUCGGGCCUUGGGUUCUAACCUGUUGCGUAGAUUUAUGCAGCGGACUGCCUUUCUCCCAAAGUGAUAAACCGGACAGUAUCAUGGACCGGUUUUCCCGGUAAUCCGUAUUUGCAAGGUUGGUUUCACU
DNA 1: GCCGGGTAATACCACCAAGTCTTCTACAGATGAGCTCG
DNA 2: CGAGCTCATCTGTAGGCCTGATGGTGGTATTACCCGGC
DNA 3: TGCAGGCCATAAGTCATACTTGTATTATCCCTCCAGTGCAGAGA
DNA 4: TCTCTGCACTGGAGGGATAATACAAGATACTGTTATGGCCTGCA
As for B2, the binding result with IS621 recombinase [2] is reported as “binds”.
